Experimental findings from publication PMC6398482 are described below.

The target of the assay is Taxol-stabilised microtubules of Rhodamine-labelled tubulin (porcine) (UniProt P02550). As to the kind of experiment: confocal microscopy of purified proteins; Taxol-stabilised MT seeds incubated with GFP–PLK4 (1 µM) for 15 min at 37°C, mounted on a slide; condensates associated with MTs counted (N=3, n=100 spots/condition).

B1: GFP-tagged Xenopus PLK4 (wild type) (enzyme)
chain: MAGSIGERREDFKVLNLLGKGSFACVYRAQSINTGIDVAIKMIDKKAMQKVGMVQRVRNEVEIHCQLKHPSILELYNYFEDSNYVYLILEMCHNGEVNRYLKNRKKPFAEDEARHFMHQIVTGMLYLHSHGILHRDLTLSNLLLSSDMNIKIADFGLATQLKMPNEKHFTMCGTPNYIAPEIATRSAHGLESDVWSLGCMLYTFLVGRPPFDTDTVKNTLNKIVLADYEMPDFVSREAKDLIFQLLRKNPADRLSLSSVLDHAFMTGFSNVQSKVMGAVEDSMDSGHATISTGFTGSSGVSISGRFQEKRILSGPSLPNKVNIFQFKDKHPTERSNGGSFHNTQRENNDFSEGNGRKPVACEDRPHSRYLRRAHSSDRSGTSQSQTYAKPSSYSERCHSVEMLAKPTHLKGYRTSSPPNSYGDIPQMFTDERSLERHTSPPVKEKTPSEFMGPAKQTAPRSNDKAETVQQWFGAMQLNGQFKNTPDTSSVSNMGGDFYSQQATQNGAPQYAWNDVKRKKNTDSSIESVLLGIKKNPGTGQRKAEKSQFGEQSKSRVPQQAFGSSTLRSIISPLNAERLKPIRQKTKNAVVSILESGEVCMEFLKEQNSQERVKEVLRISCDGNLIYVYHPNEGKGFPLVDRPPSPPENRLSYTFDSLPEKYWKKYQYAAKFIKLVRSKTPKVTYYTRYAKCMLMENSPTADVEVCFYDGAKIHKTSDVIRVIEKSGRSYTLEGSRLSTLSDEVRSYLDHANESHCVCLSLESAINTEEKKGENISLFPITFGRRPALAESPKTQPTPSVDSARERKEEQSYVNRVLHGSAASPPQMPNLNPSLISYDGSVFSATTVQPSPTSNIHNTPDHAQVLKSVFVENVGWASQLNSGAVWVQFNDGSQLVVQPGVSSIIYTAPNGQITRHGENDKLPEYIKSKLQCLSSILMLFASSSSR
For the molecule B1, the percent of PLK4 condensates associated with MTs was 95.4%.
